# Data reported in US20220040297A1 (Chugai, published 2022).
# Substitutions are numbered along the chain they refer to. In names and notes the source's numbering stands.
# B1: CE115HA000 D101R one-arm antibody (antibody, human IgG1, kappa, L234A L235A, N297A, name in Kabat numbering)
# heavy: QVQLVESGGGVVQPGRSLRLSCAASGFTFSNAWMHWVRQAPGKGLEWVAQIKAKSNNYATYYAESVKGRFTISRDDSKNSLYLQMNSLKTEDTAVYYCRYVHYGAYYGVRAWGQGTTVTVSSASTKGPSVFPLAPSSKSTSGGTAALGCLVKDYFPEPVTVSWNSGALTSGVHTFPAVLQSSGLYSLSSVVTVPSSSLGTQTYICNVNHKPSNTKVDKKVEPKSCDKTHTCPPCPAPEAAGGPSVFLFPPKPKDTLMISRTPEVTCVVVDVSHEDPEVKFNWYVDGVEVHNAKTKPREEQYASTYRVVSVLTVLHQDWLNGKEYKCKVSNKALPAPIEKTISKAKGQPREPQVYTLPPSRCELTKNQVSLSCAVKGFYPSDIAVEWESNGQPENNYKTTPPVLDSDGSFFLVSKLTVDKSRWQQGNVFSCSVMHEALHNHYTQKSLSLSPDYKDDDDK
# chain: EPKSSDKTHTCPPCPAPELLGGPSVFLFPPKPKDTLMISRTPEVTCVVVDVSHEDPEVKFNWYVDGVEVHNAKTKPREEQYNSTYRVVSVLTVLHQDWLNGKEYKCKVSNKALPAPIEKTISKAKGQPREPQVCTLPPSRDELTKNQVSLWCLVKGFYPSDIAVEWESNGQPENNYKTTPPVLDSDGSFFLYSKLTVDKSRWQQGNVFSCSVMHEALHNRYTQKSLSLSP
# light: DIVMTQSPLSLPVTPGEPASISCRSSQSLVHSNRNTYLHWYQQKPGQAPRLLIYKVSNRFSGVPDRFSGSGSGTDFTLKISRVEAEDVGVYYCGQGTQVPYTFGQGTKLEIKRTVAAPSVFIFPPSDEQLKSGTASVVCLLNNFYPREAKVQWKVDNALQSGNSQESVTEQDSKDSTYSLSSTLTLSKADYEKHKVYACEVTHQGLSSPVTKSFNRGEC
# B2: CE115HA000 T57N one-arm antibody (antibody, human IgG1, kappa, L234A L235A, N297A, name in Kabat numbering)
# heavy: B1 heavy with T60N, R110D
# chain: B1 chain
# light: B1 light
# B3: CE115HA000 G98D one-arm antibody (antibody, human IgG1, kappa, L234A L235A, N297A, name in Kabat numbering)
# heavy: B1 heavy with G104D, R110D
# chain: B1 chain
# light: B1 light
# B4: CE115HA000 N76S one-arm antibody (antibody, human IgG1, kappa, L234A L235A, N297A, name in Kabat numbering)
# heavy: B1 heavy with N79S, R110D
# chain: B1 chain
# light: B1 light
# B5: CE115HA000 W33F one-arm antibody (antibody, human IgG1, kappa, L234A L235A, N297A, name in Kabat numbering)
# heavy: B1 heavy with W33F, R110D
# chain: B1 chain
# light: B1 light
# B6: CE115HA000 Y59A one-arm antibody (antibody, human IgG1, kappa, L234A L235A, N297A, name in Kabat numbering)
# heavy: B1 heavy with Y62A, R110D
# chain: B1 chain
# light: B1 light
# B7: CE115HA000 A102P one-arm antibody (antibody, human IgG1, kappa, L234A L235A, N297A, name in Kabat numbering)
# heavy: B1 heavy with R110D, A111P
# chain: B1 chain
# light: B1 light
# B8: CE115HA000 W33A one-arm antibody (antibody, human IgG1, kappa, L234A L235A, N297A, name in Kabat numbering)
# heavy: B1 heavy with W33A, R110D
# chain: B1 chain
# light: B1 light
# B9: CE115HA000 I51E one-arm antibody (antibody, human IgG1, kappa, L234A L235A, N297A, name in Kabat numbering)
# heavy: B1 heavy with I51E, R110D
# chain: B1 chain
# light: B1 light
# B10: CE115HA000 S52cA one-arm antibody (antibody, human IgG1, kappa, L234A L235A, N297A, name in Kabat numbering)
# heavy: B1 heavy with S55A, R110D
# chain: B1 chain
# light: B1 light
# B11: CE115HA000 K52E one-arm antibody (antibody, human IgG1, kappa, L234A L235A, N297A, name in Kabat numbering)
# heavy: B1 heavy with K52E, R110D
# chain: B1 chain
# light: B1 light
# B12: CE115HA000 E61Q one-arm antibody (antibody, human IgG1, kappa, L234A L235A, N297A, name in Kabat numbering)
# heavy: B1 heavy with E64Q, R110D
# chain: B1 chain
# light: B1 light
# B13: NNS6f63 (antibody)
# heavy: QVQLVESGGGLVQPGRSLRLSCAASGFTFSNAWMHWVRQAPGKGLEWVAQIKDKSNNYATYYAESVKGRFTISRDDSKNSIYLQMNSLKTEDTAVYYCRYVHYAAGGGGWVYYGVDAWGQGTTVTVSSASTKGPSVFPLAPSSKSTSGGTAALGCLVKDYFPEPVTVSWNSGALTSGVHTFPAVLQSSGLYSLSSVVTVPSSSLGTQTYICNVNHKPSNTKVDKKVEPKSCDKTHTCPPCPAPEAAGGPSVFLFPPKPKDTLMISRTPEVTCVVVDVSHEDPEVKFNWYVDGVEVHNAKTKPREEQYASTYRVVSVLTVLHQDWLNGKEYKCKVSNKALPAPIEKTISKAKGQPREPQVYTLPPSRCELTKNQVSLSCAVKGFYPSDIAVEWESNGQPENNYKTTPPVLDSDGSFFLVSKLTVDKSRWQQGNVFSCSVMHEALHNHYTQKSLSLSPDYKDDDDK
# chain: B1 chain
# light: B1 light
# notes: one-arm antibody
# B14: NNS6f71 (antibody)
# heavy: B13 heavy with G107W, G108V, G109L, W110G, V111S
# chain: B1 chain
# light: B1 light
# notes: one-arm antibody
# B15: NNS6f50 (antibody)
# heavy: B13 heavy with G106L, G107T, W110L, V111G
# chain: B1 chain
# light: B1 light
# notes: one-arm antibody
# B16: NNS6f58 (antibody)
# heavy: B13 heavy with G106S, G107W, G108Q, G109V, W110S, V111R
# chain: B1 chain
# light: B1 light
# notes: one-arm antibody
# B17: NNS6f52 (antibody)
# heavy: B13 heavy with G106Y, G107M, G108L, W110L, V111G
# chain: B1 chain
# light: B1 light
# notes: one-arm antibody
# B18: NNS6f56 (antibody)
# heavy: B13 heavy with G106R, G107E, G108A, G109T, W110R, V111W
# chain: B1 chain
# light: B1 light
# notes: one-arm antibody
# B19: NNS6f68 (antibody)
# heavy: B13 heavy with G106V, G107E, G108W, W110R, V111W
# chain: B1 chain
# light: B1 light
# notes: one-arm antibody
# B20: NNS6f29 (antibody)
# heavy: B13 heavy with G106I, G107Y, G108Y, G109P, W110T, V111N
# chain: B1 chain
# light: B1 light
# notes: one-arm antibody
# B21: NNS6f73 (antibody)
# heavy: B13 heavy with G106W, G107V, G108V, W110V, V111R
# chain: B1 chain
# light: B1 light
# notes: one-arm antibody
# B22: NNS6f17 (antibody)
# heavy: B13 heavy with G106W, G108E, W110V
# chain: B1 chain
# light: B1 light
# notes: one-arm antibody
# B23: NNS6f72 (antibody)
# heavy: B13 heavy with G106E, G108I, G109W, V111G
# chain: B1 chain
# light: B1 light
# notes: one-arm antibody
# B24: NNS6f27 (antibody)
# heavy: B13 heavy with G106V, G107W, G109S, W110V, V111W
# chain: B1 chain
# light: B1 light
# notes: one-arm antibody
# B25: NNS6f55 (antibody)
# heavy: B13 heavy with G106A, G108R, G109W, W110L, V111A
# chain: B1 chain
# light: B1 light
# notes: one-arm antibody
# B26: NNS6f62 (antibody)
# heavy: B13 heavy with G106N, G109T, W110R, V111H
# chain: B1 chain
# light: B1 light
# notes: one-arm antibody
# B27: NNS6f64 (antibody)
# heavy: B13 heavy with G106L, G107V, G108S, G109L, W110T
# chain: B1 chain
# light: B1 light
# notes: one-arm antibody
# B28: NNS6f67 (antibody)
# heavy: B13 heavy with G107L, G108L, G109R, W110A, V111A
# chain: B1 chain
# light: B1 light
# notes: one-arm antibody
# B29: NNS6f59 (antibody)
# heavy: B13 heavy with G106L, G107L, G108V, G109Q, W110E, V111G
# chain: B1 chain
# light: B1 light
# notes: one-arm antibody
# B30: GLS3000 Y96F (antibody, IgG1, name in Kabat numbering, V domains shown)
# VH: QVQLVESGGGVVQPGRSLRLSCAASGFTFSNAWMHWVRQAPGKGLEWVAQIKAKSNNYATYYAESVKGRFTISRDDSKNSLYLQMNSLKTEDTAVYYCRYVHYGAYYGVDAWGQGTTVTVSS
# VL: DIVMTQSPLSLPVTPGEPASISCRSSQSLVHSNRNTYLHWYQQKPGQAPRLLIYKVSNRFSGVPDRFSGSGSGTDFTLKISRVEAEDVGVYYCGQGTQVPFTFGQGTKLEIK
# Target: CD3ε homodimer protein (human, UniProt P07766 23-126, limits assumed)
# Assay: SPR Biacore T200, CD3e homodimer on CM4 chip, antibody as analyte, 25 C
# Method: An appropriate amount of CD3ε homodimer protein was immobilized onto Sensor chip CM4 (GE Healthcare Japan Corp.) by the amine coupling method. Then, the antibody having an appropriate concentration was injected thereto as an analyte and allowed to interact with the CD3ε homodimer protein on the sensor chip. Then, the sensor chip was regenerated by the injection of 10 mmol/L glycine-HCl (pH 1.5). The assay was conducted at 25° C., and HBS-EP+ (GE Healthcare Japan Corp.) was used as a running buffer. […] Each parameter was calculated using Biacore T200 Evaluation Software (GE Healthcare Japan Corp.).
# Specifically, when the amount of the antibody comprising CE115HA000 bound was defined as X and the amount of the H chain one-amino acid altered form bound was defined as Y, a value of Z (ratio of amounts bound)=Y/X was used.
row,Binder,KD ratio (KD of CE115HA000/KD of altered form)
1,B1,5.66
2,B2,9.9
3,B3,2.35
4,B4,0.34
5,B5,0.68
6,B6,6.74
7,B7,3.61
8,B8,23
9,B9,0.84
10,B10,0.67
11,B11,19.8
12,B12,0.85

# Target: T1, CD3ε homodimer protein (human, UniProt P07766 23-126, limits assumed)
# T1 construct: also called human CD3ε homodimer protein; CD3e homodimer
# Assay: SPR (Biacore T200, 25°C); CD3ε homodimer immobilized on CM4, one-arm antibody as analyte
# T1 sequence (P07766 23-126 limits assumed): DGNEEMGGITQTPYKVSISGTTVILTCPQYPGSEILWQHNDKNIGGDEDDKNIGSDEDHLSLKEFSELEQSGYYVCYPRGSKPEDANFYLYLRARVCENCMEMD
row,Binder,Kd
1,B13,69 nM
2,B14,51 nM
3,B15,71 nM
4,B16,44 nM
5,B17,52 nM
6,B18,21 nM
7,B19,45 nM
8,B20,90 nM
9,B21,26 nM
10,B22,74 nM
11,B23,150 nM
12,B24,38 nM
13,B25,31 nM
14,B26,61 nM
15,B27,78 nM
16,B28,36 nM
17,B29,200 nM

# Target: T2, CD3ε homodimer protein (human, UniProt P07766 23-126, limits assumed)
# T2 construct: Whole entry named for the human CD3 epsilon chain
# Assay: SPR, CD3e immobilized
# T2 sequence (P07766 23-126 limits assumed): as above
# Method: Each one-amino acid altered form constructed, expressed, and purified in the paragraph (6-2) was evaluated using Biacore T200 (GE Healthcare Japan Corp.). An appropriate amount of CD3ε homodimer protein was immobilized onto Sensor chip CM4 (GE Healthcare Japan Corp.) by the amine coupling method. Then, the antibody having an appropriate concentration was injected thereto as an analyte and allowed to interact with the CD3ε homodimer protein on the sensor chip. Then, the sensor chip was regenerated by the injection of 10 mmol/L glycine-HCl (pH 1.5). The assay was conducted at 25° C., and HBS-EP+ (GE Healthcare Japan Corp.) was used as a running buffer. […] Each parameter was calculated using Biacore T200 Evaluation Software (GE Healthcare Japan Corp.).
# Specifically, when the amount of the GLS3000-containing antibody bound was defined as X and the amount of the L chain one-amino acid altered form bound was defined as Y, a value of Z (ratio of amounts bound)=Y/X was used.
row,Binder,KD ratio to GLS3000
1,B30,0.96
